*1 amine or outer side, *2 acyl side, *3 side chain or, on linkers, in order; H or OH if unused. Where no end group is shown, it is not given here. Side-chain parts run from the residue outwards. [ ]: non-standard residue; d: D form. The star is where a group is joined. C18 diacid = O=C(O)CCCCCCCCCCCCCCCCC(=O)*; γGlu = O=C(O)[C@H](CCC(=O)[*:2])N[*:1]; Nle = CCCC[C@H](N)C(=O)O; AEEA = NCCOCCOCC(=O)O
B1: AT693 (peptide)
peptide: EGTFISEYSIALEKIK([AEEA-AEEA-γGlu-C18 diacid])QQEFVEWLLAQKPSSGAPPPS-OH
modifications: N-terminus assumed
SMILES: CC[C@H](C)[C@H](NC(=O)[C@H](CO)NC(=O)[C@H](Cc1ccc(O)cc1)NC(=O)[C@H](CCC(=O)O)NC(=O)[C@H](CO)NC(=O)[C@@H](NC(=O)[C@H](Cc1ccccc1)NC(=O)[C@@H](NC(=O)CNC(=O)[C@@H](N)CCC(=O)O)[C@@H](C)O)[C@@H](C)CC)C(=O)N[C@@H](C)C(=O)N[C@@H](CC(C)C)C(=O)N[C@@H](CCC(=O)O)C(=O)N[C@@H](CCCCN)C(=O)N[C@H](C(=O)N[C@@H](CCCCNC(=O)COCCOCCNC(=O)COCCOCCNC(=O)CC[C@H](NC(=O)CCCCCCCCCCCCCCCCC(=O)O)C(=O)O)C(=O)N[C@@H](CCC(N)=O)C(=O)N[C@@H](CCC(N)=O)C(=O)N[C@@H](CCC(=O)O)C(=O)N[C@@H](Cc1ccccc1)C(=O)N[C@H](C(=O)N[C@@H](CCC(=O)O)C(=O)N[C@@H](Cc1c[nH]c2ccccc12)C(=O)N[C@@H](CC(C)C)C(=O)N[C@@H](CC(C)C)C(=O)N[C@@H](C)C(=O)N[C@@H](CCC(N)=O)C(=O)N[C@@H](CCCCN)C(=O)N1CCC[C@H]1C(=O)N[C@@H](CO)C(=O)N[C@@H](CO)C(=O)NCC(=O)N[C@@H](C)C(=O)N1CCC[C@H]1C(=O)N1CCC[C@H]1C(=O)N1CCC[C@H]1C(=O)N[C@@H](CO)C(=O)O)C(C)C)[C@@H](C)CC
B2: AT690 (peptide)
peptide: EGTFISDYSIA[Nle]DKIK([AEEA-AEEA-γGlu-C18 diacid])QQDFVNWLLEQKPSSGAPPPS-OH
modifications: N-terminus assumed
SMILES: CCCC[C@H](NC(=O)[C@H](C)NC(=O)[C@@H](NC(=O)[C@H](CO)NC(=O)[C@H](Cc1ccc(O)cc1)NC(=O)[C@H](CC(=O)O)NC(=O)[C@H](CO)NC(=O)[C@@H](NC(=O)[C@H](Cc1ccccc1)NC(=O)[C@@H](NC(=O)CNC(=O)[C@@H](N)CCC(=O)O)[C@@H](C)O)[C@@H](C)CC)[C@@H](C)CC)C(=O)N[C@@H](CC(=O)O)C(=O)N[C@@H](CCCCN)C(=O)N[C@H](C(=O)N[C@@H](CCCCNC(=O)COCCOCCNC(=O)COCCOCCNC(=O)CC[C@H](NC(=O)CCCCCCCCCCCCCCCCC(=O)O)C(=O)O)C(=O)N[C@@H](CCC(N)=O)C(=O)N[C@@H](CCC(N)=O)C(=O)N[C@@H](CC(=O)O)C(=O)N[C@@H](Cc1ccccc1)C(=O)N[C@H](C(=O)N[C@@H](CC(N)=O)C(=O)N[C@@H](Cc1c[nH]c2ccccc12)C(=O)N[C@@H](CC(C)C)C(=O)N[C@@H](CC(C)C)C(=O)N[C@@H](CCC(=O)O)C(=O)N[C@@H](CCC(N)=O)C(=O)N[C@@H](CCCCN)C(=O)N1CCC[C@H]1C(=O)N[C@@H](CO)C(=O)N[C@@H](CO)C(=O)NCC(=O)N[C@@H](C)C(=O)N1CCC[C@H]1C(=O)N1CCC[C@H]1C(=O)N1CCC[C@H]1C(=O)N[C@@H](CO)C(=O)O)C(C)C)[C@@H](C)CC
B3: AT691 (peptide)
peptide: EGTFISDYSIALDKIK([AEEA-AEEA-γGlu-C18 diacid])QQDFVNWLLEGGPSSGAPPPS-OH
modifications: N-terminus assumed
SMILES: CC[C@H](C)[C@H](NC(=O)[C@H](CO)NC(=O)[C@H](Cc1ccc(O)cc1)NC(=O)[C@H](CC(=O)O)NC(=O)[C@H](CO)NC(=O)[C@@H](NC(=O)[C@H](Cc1ccccc1)NC(=O)[C@@H](NC(=O)CNC(=O)[C@@H](N)CCC(=O)O)[C@@H](C)O)[C@@H](C)CC)C(=O)N[C@@H](C)C(=O)N[C@@H](CC(C)C)C(=O)N[C@@H](CC(=O)O)C(=O)N[C@@H](CCCCN)C(=O)N[C@H](C(=O)N[C@@H](CCCCNC(=O)COCCOCCNC(=O)COCCOCCNC(=O)CC[C@H](NC(=O)CCCCCCCCCCCCCCCCC(=O)O)C(=O)O)C(=O)N[C@@H](CCC(N)=O)C(=O)N[C@@H](CCC(N)=O)C(=O)N[C@@H](CC(=O)O)C(=O)N[C@@H](Cc1ccccc1)C(=O)N[C@H](C(=O)N[C@@H](CC(N)=O)C(=O)N[C@@H](Cc1c[nH]c2ccccc12)C(=O)N[C@@H](CC(C)C)C(=O)N[C@@H](CC(C)C)C(=O)N[C@@H](CCC(=O)O)C(=O)NCC(=O)NCC(=O)N1CCC[C@H]1C(=O)N[C@@H](CO)C(=O)N[C@@H](CO)C(=O)NCC(=O)N[C@@H](C)C(=O)N1CCC[C@H]1C(=O)N1CCC[C@H]1C(=O)N1CCC[C@H]1C(=O)N[C@@H](CO)C(=O)O)C(C)C)[C@@H](C)CC
B4: AT682 (peptide)
peptide: EGTFISDYSIALDKIK([AEEA-AEEA-γGlu-C18 diacid])QQDFVEWLLAQKPSSGAPPPS-OH
modifications: N-terminus assumed
SMILES: CC[C@H](C)[C@H](NC(=O)[C@H](CO)NC(=O)[C@H](Cc1ccc(O)cc1)NC(=O)[C@H](CC(=O)O)NC(=O)[C@H](CO)NC(=O)[C@@H](NC(=O)[C@H](Cc1ccccc1)NC(=O)[C@@H](NC(=O)CNC(=O)[C@@H](N)CCC(=O)O)[C@@H](C)O)[C@@H](C)CC)C(=O)N[C@@H](C)C(=O)N[C@@H](CC(C)C)C(=O)N[C@@H](CC(=O)O)C(=O)N[C@@H](CCCCN)C(=O)N[C@H](C(=O)N[C@@H](CCCCNC(=O)COCCOCCNC(=O)COCCOCCNC(=O)CC[C@H](NC(=O)CCCCCCCCCCCCCCCCC(=O)O)C(=O)O)C(=O)N[C@@H](CCC(N)=O)C(=O)N[C@@H](CCC(N)=O)C(=O)N[C@@H](CC(=O)O)C(=O)N[C@@H](Cc1ccccc1)C(=O)N[C@H](C(=O)N[C@@H](CCC(=O)O)C(=O)N[C@@H](Cc1c[nH]c2ccccc12)C(=O)N[C@@H](CC(C)C)C(=O)N[C@@H](CC(C)C)C(=O)N[C@@H](C)C(=O)N[C@@H](CCC(N)=O)C(=O)N[C@@H](CCCCN)C(=O)N1CCC[C@H]1C(=O)N[C@@H](CO)C(=O)N[C@@H](CO)C(=O)NCC(=O)N[C@@H](C)C(=O)N1CCC[C@H]1C(=O)N1CCC[C@H]1C(=O)N1CCC[C@H]1C(=O)N[C@@H](CO)C(=O)O)C(C)C)[C@@H](C)CC
B5: AT694 (peptide)
peptide: EGTFISEYSIA[Nle]EKIK([AEEA-AEEA-γGlu-C18 diacid])QQEFVEWLLAQKPSSGAPPPS-OH
modifications: N-terminus assumed
SMILES: CCCC[C@H](NC(=O)[C@H](C)NC(=O)[C@@H](NC(=O)[C@H](CO)NC(=O)[C@H](Cc1ccc(O)cc1)NC(=O)[C@H](CCC(=O)O)NC(=O)[C@H](CO)NC(=O)[C@@H](NC(=O)[C@H](Cc1ccccc1)NC(=O)[C@@H](NC(=O)CNC(=O)[C@@H](N)CCC(=O)O)[C@@H](C)O)[C@@H](C)CC)[C@@H](C)CC)C(=O)N[C@@H](CCC(=O)O)C(=O)N[C@@H](CCCCN)C(=O)N[C@H](C(=O)N[C@@H](CCCCNC(=O)COCCOCCNC(=O)COCCOCCNC(=O)CC[C@H](NC(=O)CCCCCCCCCCCCCCCCC(=O)O)C(=O)O)C(=O)N[C@@H](CCC(N)=O)C(=O)N[C@@H](CCC(N)=O)C(=O)N[C@@H](CCC(=O)O)C(=O)N[C@@H](Cc1ccccc1)C(=O)N[C@H](C(=O)N[C@@H](CCC(=O)O)C(=O)N[C@@H](Cc1c[nH]c2ccccc12)C(=O)N[C@@H](CC(C)C)C(=O)N[C@@H](CC(C)C)C(=O)N[C@@H](C)C(=O)N[C@@H](CCC(N)=O)C(=O)N[C@@H](CCCCN)C(=O)N1CCC[C@H]1C(=O)N[C@@H](CO)C(=O)N[C@@H](CO)C(=O)NCC(=O)N[C@@H](C)C(=O)N1CCC[C@H]1C(=O)N1CCC[C@H]1C(=O)N1CCC[C@H]1C(=O)N[C@@H](CO)C(=O)O)C(C)C)[C@@H](C)CC
B6: AT689 (peptide)
peptide: EGTFISDYSIALDKIK([AEEA-AEEA-γGlu-C18 diacid])QQDFVNWLLEQKPSSGAPPPS-OH
modifications: N-terminus assumed
SMILES: CC[C@H](C)[C@H](NC(=O)[C@H](CO)NC(=O)[C@H](Cc1ccc(O)cc1)NC(=O)[C@H](CC(=O)O)NC(=O)[C@H](CO)NC(=O)[C@@H](NC(=O)[C@H](Cc1ccccc1)NC(=O)[C@@H](NC(=O)CNC(=O)[C@@H](N)CCC(=O)O)[C@@H](C)O)[C@@H](C)CC)C(=O)N[C@@H](C)C(=O)N[C@@H](CC(C)C)C(=O)N[C@@H](CC(=O)O)C(=O)N[C@@H](CCCCN)C(=O)N[C@H](C(=O)N[C@@H](CCCCNC(=O)COCCOCCNC(=O)COCCOCCNC(=O)CC[C@H](NC(=O)CCCCCCCCCCCCCCCCC(=O)O)C(=O)O)C(=O)N[C@@H](CCC(N)=O)C(=O)N[C@@H](CCC(N)=O)C(=O)N[C@@H](CC(=O)O)C(=O)N[C@@H](Cc1ccccc1)C(=O)N[C@H](C(=O)N[C@@H](CC(N)=O)C(=O)N[C@@H](Cc1c[nH]c2ccccc12)C(=O)N[C@@H](CC(C)C)C(=O)N[C@@H](CC(C)C)C(=O)N[C@@H](CCC(=O)O)C(=O)N[C@@H](CCC(N)=O)C(=O)N[C@@H](CCCCN)C(=O)N1CCC[C@H]1C(=O)N[C@@H](CO)C(=O)N[C@@H](CO)C(=O)NCC(=O)N[C@@H](C)C(=O)N1CCC[C@H]1C(=O)N1CCC[C@H]1C(=O)N1CCC[C@H]1C(=O)N[C@@H](CO)C(=O)O)C(C)C)[C@@H](C)CC

target: T1, human GIP receptor (human, UniProt P48546 22-466); assay: cell-based or functional assay
T1 sequence (looked up): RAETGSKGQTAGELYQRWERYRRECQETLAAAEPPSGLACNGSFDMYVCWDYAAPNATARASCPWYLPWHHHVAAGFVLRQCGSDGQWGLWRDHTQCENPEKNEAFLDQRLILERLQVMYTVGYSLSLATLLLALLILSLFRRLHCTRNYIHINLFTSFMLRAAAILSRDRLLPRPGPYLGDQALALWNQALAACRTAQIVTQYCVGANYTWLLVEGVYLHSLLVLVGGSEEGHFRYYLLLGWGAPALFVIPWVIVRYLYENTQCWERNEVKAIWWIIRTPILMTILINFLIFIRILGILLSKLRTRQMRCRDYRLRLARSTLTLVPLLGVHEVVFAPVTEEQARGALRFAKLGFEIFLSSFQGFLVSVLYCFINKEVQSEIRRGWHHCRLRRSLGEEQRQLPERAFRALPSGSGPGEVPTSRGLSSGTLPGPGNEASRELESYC

How did the “cAMP agonism % Emax” value turn out when B1 was run?
The value was 0%.

And the “cAMP antagonism” value?
The value was 1.26 nM.

And the “cAMP antagonism % inhib” value?
Its value is 96%.

What about the “cAMP antagonism pIC50” value of the same binder?
The value was 8.9.

For B2, which “cAMP agonism % Emax” value is on record?
The value was 6%.

What about the “cAMP antagonism” value of the same binder?
The value was 15.9 nM.

And the “cAMP antagonism % inhib” value?
The value was 76%.

And the “cAMP antagonism pIC50” value?
Its value is 7.8.

How did the “cAMP agonism % Emax” value turn out when B3 was run?
The value was 7%.

And the “cAMP antagonism” value?
Its value is 20 nM.

What about the “cAMP antagonism % inhib” value of the same binder?
Its value is 75%.

What about the “cAMP antagonism pIC50” value of the same binder?
The value was 7.8.

What does the source list for B4?
cAMP agonism % Emax: 0%; cAMP antagonism: 13.6 nM; cAMP antagonism % inhib: 89%; cAMP antagonism pIC50: 7.9

How did the “cAMP agonism % Emax” value turn out when EGTFISDYSIA[Nle]DKIK([AEEA-AEEA-γGlu-C18 diacid])QQDFVEWLLAQKPSSGAPPPS-OH [AT683] was run?
The value was 0%.

What about the “cAMP antagonism” value of the same binder?
Its value is 15.9 nM.

What about the “cAMP antagonism % inhib” value of the same binder?
The value was 93%.

And the “cAMP antagonism pIC50” value?
The value was 7.8.

What does the source list for B5?
cAMP agonism % Emax: 4%; cAMP antagonism: 1.47 nM; cAMP antagonism % inhib: 88%; cAMP antagonism pIC50: 8.8

What does the source list for B6?
cAMP agonism % Emax: 3%; cAMP antagonism: 10 nM; cAMP antagonism % inhib: 82%; cAMP antagonism pIC50: 8
